This note sets out measurements from patent US20030199671A1, “Binding molecules for Fc-region polypeptides” (priority 2001, published 2003).

The target of assay [1] is IgG4 (Homo sapiens, UniProt P01861). In kind it is binding. Also noted: all human subtypes derived from myeloma patients; purchased Calbiochem 400126; host or cells: myeloma patients. To be noted: for Batch Binding (% Capture of Total Load) hIgG4: Table 18, average ligand density 1.9 μmole/ml; for hIgG4 elution pH 3.0 (% of Total Load): Table 13. The protocol: (§1) In addition, the following targets, all unfractionated IgGs, were also evaluated with selected immobilized peptides for species specificity characterization in a similar format: human IgG, goat IgG, bovine IgG, and mouse IgG (Sigma, product nos. I4506, I5256, I5506, and I15381, respectively). In addition, 10 μl aliquots of hydrolyzed NHS-activated Sepharose 4 Fast Flow (Amersham Pharmacia Biotech, product no. 17-0906-01) and immobilized recombinant Protein A (RepliGen Corp., product no. IPA-400) were also assayed as negative and positive controls. IgG targets were diluted into 10 mM phosphate buffer containing 150 mM NaCl and 0.01% Tween 20, pH 7.2 (PBST) or 50 mM Tris buffer containing, 150 mM NaCl and 0.01% Tween-20, pH 7.5 (TBST). Batch (static) binding and elution studies were conducted in a 96-well assay filterplate (Millipore MultiScreen-HV, with 0.45 μm Durapore membrane, product no. MAHVN4510). The target was allowed to incubate with the resin for 1-1.5 hours with shaking at room temperature. Unbound target was collected by centrifugation of samples from the assay plate directly into a low-UV absorbing 96-well collection plate (Costar, product no. 3635 or Greiner, product no. 655801). The unbound target was then quantitated by reading the absorbance at 280 nm (normalized to 1 cm pathlength, 1.4 mg/ml A280 extinction coefficient) of the collection plate on a microplate spectrophotometer (Molecular Devices Corp., SPECTRAmax PLUS) against a buffer blank.
(§2) The percentage bound target was determined by subtracting the mass determined as unbound from the corresponding condition's control values (control non-filtered added directly to the collection plate and/or the negative control). The assay plate was washed (3×) with 200 μl of binding buffer by vacuum filtration followed by addition of 100 μl of various elution conditions (e.g.: 0.1 M sodium bicarbonate buffer, pH 8.5 and/or 0.1 M sodium citrate buffer, pH 4.0). After a 30-60 minute incubation with shaking at room temperature, the eluted target was collected by centrifugation of the assay plate into another collection plate and quantitated in a similar manner. Percent elution of total load was then determined to characterize elution recovery efficiency under various conditions. The assay plate was then washed (3×) with 200 μl of binding buffer by vacuum filtration followed by addition of a resin cleaning condition (e.g., 0.1M CAPS buffer (3-[Cyclohexylamino]-1-propane-sulfonic acid), pH 11.5, to regenerate the resin for re-use. Percentage mass balance determination was calculated to be 90-100% on average.

The target in assay [2] is IgG3 (Homo sapiens, UniProt P01860). It is filed as binding. Also noted: all human subtypes derived from myeloma patients; purchased Calbiochem 400124; host or cells: myeloma patients. Particulars: for Batch Binding (% Capture of Total Load) hIgG3: Table 18, average ligand density 1.9 μmole/ml. The method, then: as §1, §2
In assay [3] the target is T1, human IgG1 (Homo sapiens, UniProt P01857).
T1 construct: all human subtypes derived from myeloma patients; purchased Calbiochem 400120; host or cells: myeloma patients
It is filed as binding. To be noted: for Batch Binding (% Capture of Total Load) hIgG1: Table 18, average ligand density 1.9 μmole/ml; for hIgG1 elution pH 3.0 (% of Total Load): Table 13. The protocol: as §1, §2

Assay [4] concerns the target T2, human IgG2 (Homo sapiens, UniProt P01859).
T2 construct: all human subtypes derived from myeloma patients; purchased Calbiochem 400122; host or cells: myeloma patients
In kind it is binding. To be noted: for Batch Binding (% Capture of Total Load) hIgG2: Table 18, average ligand density 1.9 μmole/ml. The method, then:
as §1, §2

Assay [5] concerns human IgG. It is filed as binding. To be noted: for Batch Binding (% Capture of Total Load) hIgG: Table 18, average ligand density 1.9 μmole/ml. The method, then: as §1, §2
Assay [6] relates to bovine IgG. It is filed as binding. To be noted: Table 11; unfractionated IgG. The method, then: as §1, §2
Assay [7] deals with mouse IgG. It is filed as binding. The protocol:
as §1, §2

In assay [8] the test system is goat IgG. In kind it is binding. The protocol:
as §1, §2

For assay [9], the system named is human IgG. The assay can be described thus: Dynamic (mini-column) binding capacity. Particulars: Table 18; total dynamic capacity; average ligand density 1.9 μmole/ml. The method, then:
These media were used to determine the effect of ligand density on human IgG binding capacity in both static (filterplate) and dynamic (mini-column) modes with commercial immobilized recombinant Protein A (Repligen, IPA400) at a single density as control.
The IgG solution was loaded onto the column at a flow rate of 0.2 ml/minute (170 cm/hr). […] At the end of the loading period, the column was washed with PBS until the absorbance at 280 nm of the column eluant returned to baseline. […] Neutralizing the pH of the eluted fractions was unnecessary since the total IgG eluted was determined by total protein absorbance at 280 nm.
To establish total media capacities, IgG was loaded onto the columns until the absorbances of the column load and flow through streams were identical (loading to full capacity). After washing the column to baseline, bound IgG was eluted and the total amount captured from this elution fraction determined. The total capacity of the media (mg IgG/ml media) as total IgG captured divided by the column bed volume was calculated.
Additionally, column capacities at 10% breakthrough were calculated from the online A280 measurements of column flowthrough streams. The A280 curves obtained for the column of interest and for an equivalent “blank” column containing hydrolyzed Sepharose FF 4 media were aligned. The difference in areas between these curves (for a retained and non-retained target) from the time of injection to the time at which the A280 value for the column of interest had risen to 10% of the maximum A280 absorbance (100%) obtained for the load solution at 100% IgG capture saturation (10% breakthrough) was graphically integrated. A standard curve was used to relate the integrated area to mg IgG bound and capacity calculated as total IgG bound divided by column bed volume.

In assay [10] the test system is human IgG. As to the kind of experiment: Static (filterplate) binding capacity. To be noted: 25 mg human IgG applied per ml resin. The method, then:
These media were used to determine the effect of ligand density on human IgG binding capacity in both static (filterplate) and dynamic (mini-column) modes with commercial immobilized recombinant Protein A (Repligen, IPA400) at a single density as control. Actual ligand densities obtained ranged from 0.17 to 3.2 μmole/ml media as confirmed by quantitative amino acid analysis.
After incubation of the samples, with shaking, at room temperature for one hour, the supernatant liquid from each well, containing unbound IgG, was collected by centrifugation into the cognate well of a collection plate. The assay plate was washed three times with PBST (200 μl/wash) and bound IgG was eluted from the media samples by incubation for 30-60 minutes at room temperature in 100 μl Elution Buffer (100 mM CAPS, pH 11.5). Eluates were collected by centrifugation for analysis. Protein concentrations were determined from A280 measurements and plotted as a function of mg human IgG bound per ml resin vs. mg human IgG applied per ml resin.
The amount of IgG captured (estimated from IgG recovered in the elution step) by the various media is dependent upon both the IgG concentration and the ligand density. […] Under these static conditions, where both ligand and target concentrations are close to KD values, equilibrium binding is established and total capacities cannot be accurately determined. However, over the IgG range of 0 to 25 mg IgG applied per ml resin (0 to 2.5 mg/ml target added to 10 μl of resin), capture of IgG is linear. Beyond this point, up to a level of 200 mg IgG applied per ml resin, saturation becomes more pronounced.

Where [11] appears, read: Table 9, immobilized peptide, 5.0 mg/ml resin load.
The mark [12] stands for this setting: Table 14, average ligand density 1.8 μM/ml.

Like-named read-outs stand apart in the source and are kept apart here. code X = not defined here; code Z = not defined here; Su = not defined here

Sequence of IgG3 (P01860 1-377 isoform P01860-1): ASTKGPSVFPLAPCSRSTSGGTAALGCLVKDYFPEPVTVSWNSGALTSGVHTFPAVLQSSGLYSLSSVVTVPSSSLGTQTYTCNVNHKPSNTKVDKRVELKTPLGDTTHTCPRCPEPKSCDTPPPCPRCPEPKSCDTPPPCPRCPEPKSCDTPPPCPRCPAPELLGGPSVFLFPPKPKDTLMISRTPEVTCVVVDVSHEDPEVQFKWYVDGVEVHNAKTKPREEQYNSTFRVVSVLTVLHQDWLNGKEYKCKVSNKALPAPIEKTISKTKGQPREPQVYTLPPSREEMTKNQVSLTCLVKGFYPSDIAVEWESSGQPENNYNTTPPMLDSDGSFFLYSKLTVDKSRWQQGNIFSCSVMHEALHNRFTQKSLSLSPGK
T1 sequence (P01857 1-330 isoform P01857-1): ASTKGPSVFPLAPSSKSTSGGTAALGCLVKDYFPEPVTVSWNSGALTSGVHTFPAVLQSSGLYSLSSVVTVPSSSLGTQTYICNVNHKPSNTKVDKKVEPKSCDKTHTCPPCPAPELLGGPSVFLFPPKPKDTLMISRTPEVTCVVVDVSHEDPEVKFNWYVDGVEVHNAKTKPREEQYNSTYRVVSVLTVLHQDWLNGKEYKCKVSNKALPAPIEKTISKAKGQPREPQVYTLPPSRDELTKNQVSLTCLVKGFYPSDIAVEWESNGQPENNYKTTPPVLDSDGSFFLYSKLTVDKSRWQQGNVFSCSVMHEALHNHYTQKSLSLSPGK
Sequence of IgG4 (P01861 1-327 isoform P01861-1): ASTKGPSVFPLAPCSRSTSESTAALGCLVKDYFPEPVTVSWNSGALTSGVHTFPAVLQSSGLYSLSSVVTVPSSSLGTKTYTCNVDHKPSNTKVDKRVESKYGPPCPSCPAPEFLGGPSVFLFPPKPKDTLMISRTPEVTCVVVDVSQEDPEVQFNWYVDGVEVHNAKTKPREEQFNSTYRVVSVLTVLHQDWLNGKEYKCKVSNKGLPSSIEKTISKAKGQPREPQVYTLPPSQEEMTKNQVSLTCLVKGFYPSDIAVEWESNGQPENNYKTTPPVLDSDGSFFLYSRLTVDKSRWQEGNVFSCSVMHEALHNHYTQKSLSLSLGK
T2 sequence (P01859 1-326 isoform P01859-1): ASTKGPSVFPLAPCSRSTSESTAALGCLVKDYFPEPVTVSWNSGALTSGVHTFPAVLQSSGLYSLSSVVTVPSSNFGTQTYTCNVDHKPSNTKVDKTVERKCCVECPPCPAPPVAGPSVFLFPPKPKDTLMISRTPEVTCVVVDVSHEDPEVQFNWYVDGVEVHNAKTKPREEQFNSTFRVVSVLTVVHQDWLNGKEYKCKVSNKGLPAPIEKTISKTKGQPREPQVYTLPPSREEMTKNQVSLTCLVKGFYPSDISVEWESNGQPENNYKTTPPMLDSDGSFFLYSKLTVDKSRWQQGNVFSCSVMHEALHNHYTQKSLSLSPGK

In the case of “Ac-AGPVDCKHHFWWCYWNGTPGPEGGGK-NH2 (not fully specified (bridges); printed as Ac-AGPVDCKHHFWWCYWNGTPGPEGGGK-NH2; cysteine pairing not given here) [DX251]”, the “% IgG Capture - Batch Binding, Human IgG4” value in [1] (setting [11]) came to 1%. The “% IgG Capture - Batch Binding, Human IgG3” value in assay [2] (setting [11]) came to 5%. For the same substance, in assay [3] (setting [11]), the “% IgG Capture - Batch Binding, Human IgG1” value is listed as 6%. Moreover, in assay [4] (setting [11]), the “% IgG Capture - Batch Binding, Human IgG2” value is recorded as 14%. Further, the “% IgG Capture - Batch Binding, Human IgG” value in assay [5] (Table 11, unfractionated IgG) is given as 4%. Further, the “% IgG Capture - Batch Binding, Bovine IgG” value in assay [6] turned out to be 0%. Besides, the “% IgG Capture - Batch Binding, Mouse IgG” value in assay [7] (Table 11, unfractionated IgG) came to 4%. Moreover, the “% IgG Capture - Batch Binding, Goat IgG” value in assay [8] (Table 11, unfractionated IgG) was found to be 0%.

As to “Ac-GDDHMCVYTTWGELIWCDNH-X-NH2 (Ac-GDDHMCVYTTWGELIWCDNH-{code X-NH2}; not fully specified (bridges); printed as Ac-GDDHMCVYTTWGELIWCDNH-X-NH2; cysteine pairing not given here; reading uncertain) [DX907]”, in [1], the “Batch Binding (% Capture of Total Load) hIgG4” value was determined as 35%. Moreover, the “Batch Binding (% Capture of Total Load) hIgG3” value in assay [2] amounted to 7%. In assay [9], the “Dynamic Cap.” value came out at 5 mg/mL. Moreover, the “Batch Binding (% Capture of Total Load) hIgG1” value in assay [3] is 65%. Moreover, the “Batch Binding (% Capture of Total Load) hIgG2” value in assay [4] turned out to be 54%. Further, the “Batch Binding (% Capture of Total Load) hIgG” value in [5] came out at 49%. In addition, the “Decrease in apparent relative static capacity compared to DX249, DX877 and DX878” value in assay [10] is roughly 2 fold.

For “Ac-GDDHMCVYTTWGELIWCDNH-X-Su-X-NH2 (Ac-GDDHMCVYTTWGELIWCDNH-{code X-Su-code X-NH2}; not fully specified (bridges); printed as Ac-GDDHMCVYTTWGELIWCDNH-X-Su-X-NH2; cysteine pairing not given here; reading uncertain) [DX909]”, the “Batch Binding (% Capture of Total Load) hIgG4” value in [1] amounted to 33%. Further, the “Batch Binding (% Capture of Total Load) hIgG1” value in assay [3] is 66%. Moreover, the “Batch Binding (% Capture of Total Load) hIgG2” value in assay [4] came out at 54%. The “Batch Binding (% Capture of Total Load) hIgG” value in assay [5] is reported as 49%. For the same substance, the “Decrease in apparent relative static capacity compared to DX249, DX877 and DX878” value in [10] is recorded as roughly 2 fold.

For “Ac-GDDHMCVYTTWGELIWCDNH-X-Z-X-NH2 (Ac-GDDHMCVYTTWGELIWCDNH-{code X-code Z-code X-NH2}; not fully specified (bridges); printed as Ac-GDDHMCVYTTWGELIWCDNH-X-Z-X-NH2; cysteine pairing not given here; reading uncertain) [DX911]”, the “Batch Binding (% Capture of Total Load) hIgG4” value in [1] amounted to 25%. Besides, the “Batch Binding (% Capture of Total Load) hIgG3” value in assay [2] is recorded as 6%. In [3], the “Batch Binding (% Capture of Total Load) hIgG1” value worked out at 58%. Also, the “Batch Binding (% Capture of Total Load) hIgG2” value in [4] was determined as 46%. Further, the “Batch Binding (% Capture of Total Load) hIgG” value in assay [5] is 43%. Also, in assay [10], the “Decrease in apparent relative static capacity compared to DX249, DX877 and DX878” value is recorded as roughly 2 fold.

Consider “Ac-GDDHMCVYTTWGELIWCDNHEPGPEG-X-NH2 (Ac-GDDHMCVYTTWGELIWCDNHEPGPEG-{code X-NH2}; not fully specified (bridges); printed as Ac-GDDHMCVYTTWGELIWCDNHEPGPEG-X-NH2; cysteine pairing not given here; reading uncertain) [DX877]”, for which, in assay [9], the “Dynamic Cap.” value was found to be 8 mg/mL. Moreover, in assay [5], the “Batch Binding (% Capture of Total Load) hIgG” value was 61%. Further, the “Static Cap.” value in assay [10] (Table 18, average ligand density 1.9 μmole/ml) came out at 20 mg/mL.

In the case of “Ac-GDNPMCWRAHWWEDAYCINHEPGPEGGGK-NH2 (not fully specified (bridges); printed as Ac-GDNPMCWRAHWWEDAYCINHEPGPEGGGK-NH2; cysteine pairing not given here) [DX1072]”, in assay [1], the “hIgG4 elution pH 3.0 (% of Total Load)” value is 11%. The “hIgG1 elution pH 3.0 (% of Total Load)” value in assay [3] worked out at 27%. Further, the “% IgG Capture - Batch Binding, Human IgG” value in assay [5] (setting [12]) is given as 49%. Moreover, the “% IgG Capture - Batch Binding, Goat IgG” value in assay [8] (setting [12]) came to 4%.

As to “Ac-GDNPMCWRASWWEDAYCINHEPGPEGGGK-NH2 (not fully specified (bridges); printed as Ac-GDNPMCWRASWWEDAYCINHEPGPEGGGK-NH2; cysteine pairing not given here) [DX1071]”, in assay [1], the “hIgG4 elution pH 3.0 (% of Total Load)” value is reported as 5%. Further, the “hIgG1 elution pH 3.0 (% of Total Load)” value in [3] came out at 4%. The “% IgG Capture - Batch Binding, Human IgG” value in [5] (setting [12]) stood at 45%. The “% IgG Capture - Batch Binding, Mouse IgG” value in [7] (setting [12]) worked out at 8%. For the same substance, the “% IgG Capture - Batch Binding, Goat IgG” value in assay [8] (setting [12]) was determined as 3%.
